According to publication PMC8298264, “Function of cofactor Akirin2 in the regulation of gene expression in model human neutrophil-like HL60 cells” (Bioscience Reports, 2021):

Test system: human HL60 cells
Experiment: SWATH-MS proteomics, differential protein representation, akirin2 KO vs WT HL60 cells
Assay type: cell-based
Conditions: sheet "Under-represented in KO"
Outline: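 Three biological replicates per genotype; 150 µg protein FASP/trypsin digested; IDA library (3 µg digest); SWATH variable windows, 5 µg/sample, 3.6 s cycle; gradient 5–30% B 120 min then 30–60% B 15 min; 1% global FDR; TAS normalization.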

B1: sp¦Q9NUQ2¦PLCE_HUMAN (protein, UniProt Q9NUQ2 1-364, looked up)
1-acyl-sn-glycerol-3-phosphate …: MLLSLVLHTYSMRYLLPSVVLLGTAPTYVLAWGVWRLLSAFLPARFYQALDDRLYCVYQSMVLFFFENYTGVQILLYGDLPKNKENIIYLANHQSTVDWIVADILAIRQNALGHVRYVLKEGLKWLPLYGCYFAQHGGIYVKRSAKFNEKEMRNKLQSYVDAGTPMYLVIFPEGTRYNPEQTKVLSASQAFAAQRGLAVLKHVLTPRIKATHVAFDCMKNYLDAIYDVTVVYEGKDDGGQRRESPTMTEFLCKECPKIHIHIDRIDKKDVPEEQEHMRRWLHERFEIKDKMLIEFYESPDPERRKRFPGKSVNSKLSIKKTLPSMLILSGLTAGMLMTDAGRKLYVNTWIYGTLLGCLWVTIKA
- Fold Change (akirin2 KO vs WT HL60 cells): 0.2386
- Log (Fold Change) (akirin2 KO vs WT HL60 cells): -0.6223

B2: sp¦Q86UP2¦KTN1_HUMAN (protein, UniProt Q86UP2 1-1357, looked up)
Kinectin: MEFYESAYFIVLIPSIVITVIFLFFWLFMKETLYDEVLAKQKREQKLIPTKTDKKKAEKKKNKKKEIQNGNLHESDSESVPRDFKLSDALAVEDDQVAPVPLNVVETSSSVRERKKKEKKQKPVLEEQVIKESDASKIPGKKVEPVPVTKQPTPPSEAAASKKKPGQKKSKNGSDDQDKKVETLMVPSKRQEALPLHQETKQESGSGKKKASSKKQKTENVFVDEPLIHATTYIPLMDNADSSPVVDKREVIDLLKPDQVEGIQKSGTKKLKTETDKENAEVKFKDFLLSLKTMMFSEDEALCVVDLLKEKSGVIQDALKKSSKGELTTLIHQLQEKDKLLAAVKEDAAATKDRCKQLTQEMMTEKERSNVVITRMKDRIGTLEKEHNVFQNKIHVSYQETQQMQMKFQQVREQMEAEIAHLKQENGILRDAVSNTTNQLESKQSAELNKLRQDYARLVNELTEKTGKLQQEEVQKKNAEQAATQLKVQLQEAERRWEEVQSYIRKRTAEHEAAQQDLQSKFVAKENEVQSLHSKLTDTLVSKQQLEQRLMQLMESEQKRVNKEESLQMQVQDILEQNEALKAQIQQFHSQIAAQTSASVLAEELHKVIAEKDKQIKQTEDSLASERDRLTSKEEELKDIQNMNFLLKAEVQKLQALANEQAAAAHELEKMQQSVYVKDDKIRLLEEQLQHEISNKMEEFKILNDQNKALKSEVQKLQTLVSEQPNKDVVEQMEKCIQEKDEKLKTVEELLETGLIQVATKEEELNAIRTENSSLTKEVQDLKAKQNDQVSFASLVEELKKVIHEKDGKIKSVEELLEAELLKVANKEKTVQDLKQEIKALKEEIGNVQLEKAQQLSITSKVQELQNLLKGKEEQMNTMKAVLEEKEKDLANTGKWLQDLQEENESLKAHVQEVAQHNLKEASSASQFEELEIVLKEKENELKRLEAMLKERESDLSSKTQLLQDVQDENKLFKSQIEQLKQQNYQQASSFPPHEELLKVISEREKEISGLWNELDSLKDAVEHQRKKNNDLREKNWEAMEALASTEKMLQDKVNKTSKERQQQVEAVELEAKEVLKKLFPKVSVPSNLSYGEWLHGFEKKAKECMAGTSGSEEVKVLEHKLKEADEMHTLLQLECEKYKSVLAETEGILQKLQRSVEQEENKWKVKVDESHKTIKQMQSSFTSSEQELERLRSENKDIENLRREREHLEMELEKAEMERSTYVTEVRELKDLLTELQKKLDDSYSEAVRQNEELNLLKAQLNETLTKLRTEQNERQKVAGDLHKAQQSLELIQSKIVKAAGDTTVIENSDVSPETESSEKETMSVSLNQTVTQLQQLLQAVNQQLTKEKEHYQVLE
- Fold Change (akirin2 KO vs WT HL60 cells): 0.24
- Log (Fold Change) (akirin2 KO vs WT HL60 cells): -0.6198

B3: sp¦Q9Y617¦SERC_HUMAN (protein, UniProt Q9Y617 1-370, looked up)
Phosphoserine aminotransferase: MDAPRQVVNFGPGPAKLPHSVLLEIQKELLDYKGVGISVLEMSHRSSDFAKIINNTENLVRELLAVPDNYKVIFLQGGGCGQFSAVPLNLIGLKAGRCADYVVTGAWSAKAAEEAKKFGTINIVHPKLGSYTKIPDPSTWNLNPDASYVYYCANETVHGVEFDFIPDVKGAVLVCDMSSNFLSKPVDVSKFGVIFAGAQKNVGSAGVTVVIVRDDLLGFALRECPSVLEYKVQAGNSSLYNTPPCFSIYVMGLVLEWIKNNGGAAAMEKLSSIKSQTIYEIIDNSQGFYVCPVEPQNRSKMNIPFRIGNAKGDDALEKRFLDKALELNMLSLKGHRSVGGIRASLYNAVTIEDVQKLAAFMKKFLEMHQL
- Fold Change (KO vs WT HL60 cells): 0.4967
- Log (Fold Change) (KO vs WT HL60 cells): -0.3039

B4: sp¦Q9NUQ9¦CYRIB_HUMAN (protein, UniProt Q9NUQ9 2-324, looked up)
CYFIP-related Rac1 interactor …: GNLLKVLTCTDLEQGPNFFLDFENAQPTESEKEIYNQVNVVLKDAEGILEDLQSYRGAGHEIREAIQHPADEKLQEKAWGAVVPLVGKLKKFYEFSQRLEAALRGLLGALTSTPYSPTQHLEREQALAKQFAEILHFTLRFDELKMTNPAIQNDFSYYRRTLSRMRINNVPAEGENEVNNELANRMSLFYAEATPMLKTLSDATTKFVSENKNLPIENTTDCLSTMASVCRVMLETPEYRSRFTNEETVSFCLRVMVGVIILYDHVHPVGAFAKTSKIDMKGCIKVLKDQPPNSVEGLLNALRYTTKHLNDETTSKQIKSMLQ
- Fold Change (KO vs WT HL60 cells): 0.4847
- Log (Fold Change) (KO vs WT HL60 cells): -0.3146

B5: sp¦O95202¦LETM1_HUMAN (protein, UniProt O95202 116-739, looked up)
Mitochondrial proton/calcium …: DDSVVEKSLKSLKDKNKKLEEGGPVYSPPAEVVVKKSLGQRVLDELKHYYHGFRLLWIDTKIAARMLWRILNGHSLTRRERRQFLRICADLFRLVPFLVFVVVPFMEFLLPVAVKLFPNMLPSTFETQSLKEERLKKELRVKLELAKFLQDTIEEMALKNKAAKGSATKDFSVFFQKIRETGERPSNEEIMRFSKLFEDELTLDNLTRPQLVALCKLLELQSIGTNNFLRFQLTMRLRSIKADDKLIAEEGVDSLNVKELQAACRARGMRALGVTEDRLRGQLKQWLDLHLHQEIPTSLLILSRAMYLPDTLSPADQLKSTLQTLPEIVAKEAQVKVAEVEGEQVDNKAKLEATLQEEAAIQQEHREKELQKRSEVAKDFEPERVVAAPQRPGTEPQPEMPDTVLQSETLKDTAPVLEGLKEEEITKEEIDILSDACSKLQEQKKSLTKEKEELELLKEDVQDYSEDLQEIKKELSKTGEEKYVEESKASKRLTKRVQQMIGQIDGLISQLEMDQQAGKLAPANGMPTGENVISVAELINAMKQVKHIPESKLTSLAAALDENKDGKVNIDDLVKVIELVDKEDVHISTSQVAEIVATLEKEEKVEEKEKAKEKAEKEVAEVKS
- Fold Change (KO vs WT HL60 cells): 0.5097
- Log (Fold Change) (KO vs WT HL60 cells): -0.2927

B6: sp¦Q7Z3D6¦GLUCM_HUMAN (protein, UniProt Q7Z3D6 29-616, looked up)
D-glutamate cyclase, …: TSSMAGELRPASLVVLPRSLAPAFERFCQVNTGPLPLLGQSEPEKWMLPPQGAISETRMGHPQFWKYEFGACTGSLASLEQYSEQLKDMVAFFLGCSFSLEEALEKAGLPRRDPAGHSQTTVPCVTHAGFCCPLVVTMRPIPKDKLEGLVRACCSLGGEQGQPVHMGDPELLGIKELSKPAYGDAMVCPPGEVPVFWPSPLTSLGAVSSCETPLAFASIPGCTVMTDLKDAKAPPGCLTPERIPEVHHISQDPLHYSIASVSASQKIRELESMIGIDPGNRGIGHLLCKDELLKASLSLSHARSVLITTGFPTHFNHEPPEETDGPPGAVALVAFLQALEKEVAIIVDQRAWNLHQKIVEDAVEQGVLKTQIPILTYQGGSVEAAQAFLCKNGDPQTPRFDHLVAIERAGRAADGNYYNARKMNIKHLVDPIDDLFLAAKKIPGISSTGVGDGGNELGMGKVKEAVRRHIRHGDVIACDVEADFAVIAGVSNWGGYALACALYILYSCAVHSQYLRKAVGPSRAPGDQAWTQALPSVIKEEKMLGILVQHKVRSGVSGIVGMEVDGLPFHNTHAEMIQKLVDVTTAQV
- Fold Change (KO vs WT HL60 cells): 0.5156
- Log (Fold Change) (KO vs WT HL60 cells): -0.2877

B7: sp¦P36776¦LONM_HUMAN (protein, UniProt P36776 68-959, looked up)
Lon protease homolog, …: FWEASSRGGGAFSGGEDASEGGAEEGAGGAGGSAGAGEGPVITALTPMTIPDVFPHLPLIAITRNPVFPRFIKIIEVKNKKLVELLRRKVRLAQPYVGVFLKRDDSNESDVVESLDEIYHTGTFAQIHEMQDLGDKLRMIVMGHRRVHISRQLEVEPEEPEAENKHKPRRKSKRGKKEAEDELSARHPAELAMEPTPELPAEVLMVEVENVVHEDFQVTEEVKALTAEIVKTIRDIIALNPLYRESVLQMMQAGQRVVDNPIYLSDMGAALTGAESHELQDVLEETNIPKRLYKALSLLKKEFELSKLQQRLGREVEEKIKQTHRKYLLQEQLKIIKKELGLEKDDKDAIEEKFRERLKELVVPKHVMDVVDEELSKLGLLDNHSSEFNVTRNYLDWLTSIPWGKYSNENLDLARAQAVLEEDHYGMEDVKKRILEFIAVSQLRGSTQGKILCFYGPPGVGKTSIARSIARALNREYFRFSVGGMTDVAEIKGHRRTYVGAMPGKIIQCLKKTKTENPLILIDEVDKIGRGYQGDPSSALLELLDPEQNANFLDHYLDVPVDLSKVLFICTANVTDTIPEPLRDRMEMINVSGYVAQEKLAIAERYLVPQARALCGLDESKAKLSSDVLTLLIKQYCRESGVRNLQKQVEKVLRKSAYKIVSGEAESVEVTPENLQDFVGKPVFTVERMYDVTPPGVVMGLAWTAMGGSTLFVETSLRRPQDKDAKGDKDGSLEVTGQLGEVMKESARIAYTFARAFLMQHAPANDYLVTSHIHLHVPEGATPKDGPSAGCTIVTALLSLAMGRPVRQNLAMTGEVSLTGKILPVGGIKEKTIAAKRAGVTCIVLPAENKKDFYDLAAFITEGLEVHFVEHYREIFDIAFPDEQAEALAVER
- Fold Change (KO vs WT HL60 cells): 0.5023
- Log (Fold Change) (KO vs WT HL60 cells): -0.2991

B8: sp¦Q9H7B2¦RPF2_HUMAN (protein, UniProt Q9H7B2 1-306, looked up)
Ribosome production factor 2 …: MDTLDRVVKPKTKRAKRFLEKREPKLNENIKNAMLIKGGNANATVTKVLKDVYALKKPYGVLYKKKNITRPFEDQTSLEFFSKKSDCSLFMFGSHNKKRPNNLVIGRMYDYHVLDMIELGIENFVSLKDIKNSKCPEGTKPMLIFAGDDFDVTEDYRRLKSLLIDFFRGPTVSNIRLAGLEYVLHFTALNGKIYFRSYKLLLKKSGCRTPRIELEEMGPSLDLVLRRTHLASDDLYKLSMKMPKALKPKKKKNISHDTFGTTYGRIHMQKQDLSKLQTRKMKGLKKRPAERITEDHEKKSKRIKKN
- Fold Change (KO vs WT HL60 cells): 0.4816
- Log (Fold Change) (KO vs WT HL60 cells): -0.3173
